This is an account of results in publication PMC12383261, “Mechanistic adaptation of the metazoan RabGEFs Mon1-Ccz1 and Fuzzy-Inturned” (Science Advances, 2025).

The chains are these.
T1: Fuzzy^LD1-Inturned^LD1 catalytic core complex (human)
T1 sequence (Q9BT04 whole entry, looked up): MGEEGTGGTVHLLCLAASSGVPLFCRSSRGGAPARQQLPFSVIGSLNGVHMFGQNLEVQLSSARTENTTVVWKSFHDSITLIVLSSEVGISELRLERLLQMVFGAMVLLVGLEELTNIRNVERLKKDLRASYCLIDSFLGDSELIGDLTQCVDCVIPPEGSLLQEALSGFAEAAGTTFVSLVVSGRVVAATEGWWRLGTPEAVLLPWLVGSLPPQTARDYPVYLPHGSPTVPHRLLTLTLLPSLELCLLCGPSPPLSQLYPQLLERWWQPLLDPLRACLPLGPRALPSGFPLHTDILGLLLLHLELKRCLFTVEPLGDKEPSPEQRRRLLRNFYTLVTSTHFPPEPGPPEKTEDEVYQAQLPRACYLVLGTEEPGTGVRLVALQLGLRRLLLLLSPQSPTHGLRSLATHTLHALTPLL
T1 sequence (Q9ULD6 whole entry, looked up): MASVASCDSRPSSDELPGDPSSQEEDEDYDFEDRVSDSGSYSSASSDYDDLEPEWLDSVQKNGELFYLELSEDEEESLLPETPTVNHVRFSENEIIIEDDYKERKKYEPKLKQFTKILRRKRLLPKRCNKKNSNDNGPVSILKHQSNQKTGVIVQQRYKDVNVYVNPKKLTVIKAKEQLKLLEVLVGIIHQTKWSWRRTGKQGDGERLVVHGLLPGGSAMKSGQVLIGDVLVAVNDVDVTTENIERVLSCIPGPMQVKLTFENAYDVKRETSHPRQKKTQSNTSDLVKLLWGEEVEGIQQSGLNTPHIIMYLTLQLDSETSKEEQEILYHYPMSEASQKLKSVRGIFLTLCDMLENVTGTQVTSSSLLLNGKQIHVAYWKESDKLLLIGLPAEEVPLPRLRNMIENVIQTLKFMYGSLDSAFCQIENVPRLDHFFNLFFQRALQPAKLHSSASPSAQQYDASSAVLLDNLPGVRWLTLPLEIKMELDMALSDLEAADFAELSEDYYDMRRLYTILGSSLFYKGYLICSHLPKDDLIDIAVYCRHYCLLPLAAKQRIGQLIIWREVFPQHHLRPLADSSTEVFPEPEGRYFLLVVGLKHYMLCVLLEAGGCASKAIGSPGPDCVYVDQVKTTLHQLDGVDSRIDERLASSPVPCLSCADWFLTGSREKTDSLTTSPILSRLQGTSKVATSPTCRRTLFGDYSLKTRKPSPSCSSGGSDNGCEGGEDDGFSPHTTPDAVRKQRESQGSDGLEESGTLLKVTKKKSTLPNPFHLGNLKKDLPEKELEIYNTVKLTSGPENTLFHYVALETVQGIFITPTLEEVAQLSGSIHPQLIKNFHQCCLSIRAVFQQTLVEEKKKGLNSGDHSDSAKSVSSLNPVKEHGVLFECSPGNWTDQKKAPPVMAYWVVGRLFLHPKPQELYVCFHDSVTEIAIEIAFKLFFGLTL

T2: HsInturned (human Inturned) (human, UniProt Q9ULD6 1-942)
T2 construct: Inturned, human; the N-terminal PDZ domain is not visible in the map; also called FLAG-Inturned; source: Spodoptera frugiperda 21 cells (biGBac), coexpressed with Fuzzy and Rab23^N121I, purified (glutathione agarose, SEC)
T2 sequence: T1 sequence (Q9ULD6 whole entry, looked up)

T3: HsFuzzy-Inturned complex (cryo-EM sample) (human, UniProt Q9BT04 2-418; Q9ULD6 1-942)
T3 construct: Fuzzy, human; as m5; Inturned, human; as m6; Heterodimer of m5 and m6; seen alone and with Rab23^N121I in the same cryo-EM sample; also called dimeric Fuzzy-Inturned complex; source: Spodoptera frugiperda 21 cells (biGBac), coexpressed, purified (glutathione agarose, SEC)
T3 sequence 1: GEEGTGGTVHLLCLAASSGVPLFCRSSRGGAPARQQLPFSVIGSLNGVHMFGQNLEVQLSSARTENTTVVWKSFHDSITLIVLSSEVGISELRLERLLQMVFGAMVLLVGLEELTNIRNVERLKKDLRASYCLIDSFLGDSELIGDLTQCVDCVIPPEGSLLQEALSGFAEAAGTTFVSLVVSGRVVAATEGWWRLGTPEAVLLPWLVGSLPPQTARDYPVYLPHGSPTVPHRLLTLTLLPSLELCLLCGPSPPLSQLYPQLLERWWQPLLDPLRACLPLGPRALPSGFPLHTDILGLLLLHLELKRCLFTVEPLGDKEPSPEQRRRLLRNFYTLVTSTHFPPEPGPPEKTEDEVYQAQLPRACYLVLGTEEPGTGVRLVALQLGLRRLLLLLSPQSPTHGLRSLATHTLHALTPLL
T3 sequence 2: T1 sequence (Q9ULD6 whole entry, looked up)

B1: Rab23^I33A/T35A (natural protein)
chain: MLEEDMEVAIKMVVVGNGAVGKSSMIQRYCKGAFAKDYKKTIGVDFLERQIQVNDEDVRLMLWDTAGQEEFDAITKAYYRGAQACVLVFSTTDRESFEAVSSWREKVVAEVGDIPTVLVQNKIDLLDDSCIKNEEAEALAKRLKLRFYRTSVKEDLNVNEVFKYLAEKYLQKLKQQIAEDPELTHSSSNKIGVFNTSGGSHSGQNSGTLNGGDVINLRPNKQRTKKNRNPFSSCSIP
B2: HsRab23^N121I (nucleotide-free mutant of human Rab23) (natural protein)
chain: LEEDMEVAIKMVVVGNGAVGKSSMIQRYCKGIFTKDYKKTIGVDFLERQIQVNDEDVRLMLWDTAGQEEFDAITKAYYRGAQACVLVFSTTDRESFEAVSSWREKVVAEVGDIPTVLVQIKIDLLDDSCIKNEEAEALAKRLKLRFYRTSVKEDLNVNEVFKYLAEKYLQKLKQQIAEDPELTHSSSNKIGVFNTSGGSHSGQNSGTLNGGDVINLRPNKQRTKKNRNPFSSCSIP
notes: Rab23, human; also called GST-Rab23^N121I; source: Spodoptera frugiperda 21 cells (biGBac), coexpressed with Fuzzy and Inturned, purified (glutathione agarose, SEC); not shown: GST, N-terminal, cleaved
B3: HsFuzzy (human Fuzzy) (natural protein)
chain: T3 sequence 1
notes: Fuzzy, human; also called His-SUMO-Fuzzy; source: Spodoptera frugiperda 21 cells (biGBac), coexpressed with Inturned and Rab23^N121I, purified (glutathione agarose, SEC)

The target in assay [1] is T1, Fuzzy^LD1-Inturned^LD1 catalytic core complex (human).
The target in assay [2] is B3. Description: cryo-EM structure; HsFuzzy, HsInturned and HsRab23^N121I coexpressed in insect cells, complex purified; ~0.7 mg/ml; 0.002% lauryl maltose neopentyl glycol on grid; dimeric and trimeric particles in one sample; 50 mM tris, 200 mM NaCl, 0.5 mM TCEP, 1 mM MgCl2 (pH 8). As to conditions: both partners purified.
Assay [3] addresses T2, HsInturned (human Inturned). The assay is described as above. The note with it: both partners purified.
Assay [4] deals with T3, HsFuzzy-Inturned complex (cryo-EM …). Described as above. As to conditions: both partners purified.

Take B1: in assay [1], the stimulation of nucleotide exchange (MANT-GDP release) of Rab23^I33A/T35A by Fuzzy^LD1-Inturned^LD1, against Rab23 WT is 5 fold. Regarding B2, the binding result in assay [2], in assay [3] and in assay [4] was “binds” each time. As to B3, the binding result in assay [3] is reported as “binds”.
